# In patent publication US20230119539A1, “TRACELESS LINKERS AND PROTEIN-CONJUGATES THEREOF” (Regeneron Pharmaceuticals, Inc., priority 2019, published 2023):
# Like-named read-outs stand apart in the source and are kept apart here.
# T1: human macrophage scavenger receptor 1 (MSR1) (human, UniProt P21757 1-451)
# T1 sequence (looked up): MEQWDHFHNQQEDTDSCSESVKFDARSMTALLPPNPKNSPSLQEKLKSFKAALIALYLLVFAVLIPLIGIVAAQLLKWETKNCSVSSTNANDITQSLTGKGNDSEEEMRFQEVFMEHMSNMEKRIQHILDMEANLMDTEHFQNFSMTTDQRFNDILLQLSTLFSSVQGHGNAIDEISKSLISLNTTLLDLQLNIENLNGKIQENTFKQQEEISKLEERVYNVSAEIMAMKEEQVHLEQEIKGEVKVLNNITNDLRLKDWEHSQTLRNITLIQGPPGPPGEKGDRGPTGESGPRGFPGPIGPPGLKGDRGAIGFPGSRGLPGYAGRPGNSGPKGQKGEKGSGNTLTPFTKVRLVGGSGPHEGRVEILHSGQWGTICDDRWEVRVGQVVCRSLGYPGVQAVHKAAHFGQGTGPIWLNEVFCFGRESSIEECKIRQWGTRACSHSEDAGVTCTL
# T2: GR (Homo sapiens, UniProt P04150)
# T2 construct: host or cells: HEK293 (HEK293/GRLuc; HEK293/GRLuc/MSR1 additionally transduced with human MSR1)
# T2 sequence (P04150 524-758 limits assumed): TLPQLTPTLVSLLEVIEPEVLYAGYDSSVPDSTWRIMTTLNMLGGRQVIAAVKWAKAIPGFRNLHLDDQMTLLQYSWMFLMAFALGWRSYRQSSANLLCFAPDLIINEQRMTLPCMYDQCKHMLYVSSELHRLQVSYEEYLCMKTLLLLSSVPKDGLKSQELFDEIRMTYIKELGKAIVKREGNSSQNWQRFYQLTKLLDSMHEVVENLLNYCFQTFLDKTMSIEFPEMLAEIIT
# B1: H1H21234N-N297Q-L1-PII-1 (antibody, V domains shown)
# VH: QVQLQESGPGLVKPSETLSLTCTVTGGSISRNYWSWIRQPPGKGLEWIGYIYYSGSIDYNPSLKSRVTISVDTSKNQFSLKLSSMTAADTAVYYCARDRWNWKYGMDVWGQGTTVIVSS
# VL: EIVLTQSPGTLSLSPGERATLSCRASQTVRNNYLAWYHQKPGQAPRLLIYGASSRATGIPDRFSGSGSGTDFTLTISRLEPEDFTVYYCHQYGNSPWTFGQGTKMEIKR
# modifications: heavy-chain constant region (not part of this entry): N297Q (EU); linker-payload L1-PII-1 (DIBAC-suc-PEG4-vcPAB-PII-1, payload budesonide) clicked onto azido-PEG3-amine on glutamines; DAR 4
# B2: H1H21234N-N297Q-L5-PIII-1 (antibody, V domains shown)
# VH: QVQLQESGPGLVKPSETLSLTCTVTGGSISRNYWSWIRQPPGKGLEWIGYIYYSGSIDYNPSLKSRVTISVDTSKNQFSLKLSSMTAADTAVYYCARDRWNWKYGMDVWGQGTTVIVSS
# VL: EIVLTQSPGTLSLSPGERATLSCRASQTVRNNYLAWYHQKPGQAPRLLIYGASSRATGIPDRFSGSGSGTDFTLTISRLEPEDFTVYYCHQYGNSPWTFGQGTKMEIKR
# modifications: heavy-chain constant region (not part of this entry): N297Q (EU); linker-payload L5-PIII-1 (DIBAC-suc-SGGG-PIII-1) clicked onto azido-PEG3-amine on glutamines; DAR 4
# B3: H1H21234N-N297Q-L4-PIII-1 (antibody, V domains shown)
# VH: QVQLQESGPGLVKPSETLSLTCTVTGGSISRNYWSWIRQPPGKGLEWIGYIYYSGSIDYNPSLKSRVTISVDTSKNQFSLKLSSMTAADTAVYYCARDRWNWKYGMDVWGQGTTVIVSS
# VL: EIVLTQSPGTLSLSPGERATLSCRASQTVRNNYLAWYHQKPGQAPRLLIYGASSRATGIPDRFSGSGSGTDFTLTISRLEPEDFTVYYCHQYGNSPWTFGQGTKMEIKR
# modifications: heavy-chain constant region (not part of this entry): N297Q (EU); linker-payload L4-PIII-1 (DIBAC-suc-GGF-PIII-1) clicked onto azido-PEG3-amine on glutamines; DAR 4
# B4: H1H21234N-N297Q-L13-PII-1 (antibody, V domains shown)
# VH: QVQLQESGPGLVKPSETLSLTCTVTGGSISRNYWSWIRQPPGKGLEWIGYIYYSGSIDYNPSLKSRVTISVDTSKNQFSLKLSSMTAADTAVYYCARDRWNWKYGMDVWGQGTTVIVSS
# VL: EIVLTQSPGTLSLSPGERATLSCRASQTVRNNYLAWYHQKPGQAPRLLIYGASSRATGIPDRFSGSGSGTDFTLTISRLEPEDFTVYYCHQYGNSPWTFGQGTKMEIKR
# modifications: heavy-chain constant region (not part of this entry): N297Q (EU); linker-payload L13-PII-1 (COT-GGGG-NHCH2-Bud) conjugated as in Example 5; four DAR ADC
# B5: H1H21234N-N297Q-L14-PII-1 (antibody, V domains shown)
# VH: QVQLQESGPGLVKPSETLSLTCTVTGGSISRNYWSWIRQPPGKGLEWIGYIYYSGSIDYNPSLKSRVTISVDTSKNQFSLKLSSMTAADTAVYYCARDRWNWKYGMDVWGQGTTVIVSS
# VL: EIVLTQSPGTLSLSPGERATLSCRASQTVRNNYLAWYHQKPGQAPRLLIYGASSRATGIPDRFSGSGSGTDFTLTISRLEPEDFTVYYCHQYGNSPWTFGQGTKMEIKR
# modifications: heavy-chain constant region (not part of this entry): N297Q (EU); linker-payload L14-PII-1 (DIBAC-GGFG-NHCH2-Bud) conjugated as in Example 5; four DAR ADC
# B6: H1H21234N-N297Q-L2-PIII-1 (antibody, V domains shown)
# VH: QVQLQESGPGLVKPSETLSLTCTVTGGSISRNYWSWIRQPPGKGLEWIGYIYYSGSIDYNPSLKSRVTISVDTSKNQFSLKLSSMTAADTAVYYCARDRWNWKYGMDVWGQGTTVIVSS
# VL: EIVLTQSPGTLSLSPGERATLSCRASQTVRNNYLAWYHQKPGQAPRLLIYGASSRATGIPDRFSGSGSGTDFTLTISRLEPEDFTVYYCHQYGNSPWTFGQGTKMEIKR
# modifications: heavy-chain constant region (not part of this entry): N297Q (EU); linker-payload L2-PIII-1 (DIBAC-suc-PEG4-Glu-vcPAB-PIII-1) clicked onto azido-PEG3-amine on glutamines; DAR 4
# B7: H1H21234N-N297Q-L8-PII-1 (antibody, V domains shown)
# VH: QVQLQESGPGLVKPSETLSLTCTVTGGSISRNYWSWIRQPPGKGLEWIGYIYYSGSIDYNPSLKSRVTISVDTSKNQFSLKLSSMTAADTAVYYCARDRWNWKYGMDVWGQGTTVIVSS
# VL: EIVLTQSPGTLSLSPGERATLSCRASQTVRNNYLAWYHQKPGQAPRLLIYGASSRATGIPDRFSGSGSGTDFTLTISRLEPEDFTVYYCHQYGNSPWTFGQGTKMEIKR
# modifications: heavy-chain constant region (not part of this entry): N297Q (EU); linker-payload L8-PII-1 (COT-PEG4-EvcPAB-G-NHCH2-Bud) conjugated as in Example 5; four DAR ADC
# B8: H1H21234N-N297Q-L6-PII-9 (antibody, V domains shown)
# VH: QVQLQESGPGLVKPSETLSLTCTVTGGSISRNYWSWIRQPPGKGLEWIGYIYYSGSIDYNPSLKSRVTISVDTSKNQFSLKLSSMTAADTAVYYCARDRWNWKYGMDVWGQGTTVIVSS
# VL: EIVLTQSPGTLSLSPGERATLSCRASQTVRNNYLAWYHQKPGQAPRLLIYGASSRATGIPDRFSGSGSGTDFTLTISRLEPEDFTVYYCHQYGNSPWTFGQGTKMEIKR
# modifications: heavy-chain constant region (not part of this entry): N297Q (EU); linker-payload L6-PII-9 (DIBAC-suc-PEG4-PII-9, payload budesonide) conjugated as in Example 5; four DAR ADC
# Experiments:
# [1] = Solubility of quenched linker-payloads; conditions: Table 3c, linker-payloads quenched with taurine-PEG4-azide or CD-N3
# [2] = Metabolic stability with human liver microsomes; type: in vitro ADME; conditions: for Percent Remaining (%): Mean
# Protocol: The metabolic stability of payload PIII-1 incubated with human liver microsomes was evaluated and the results were shown in the Table 7e below.
# [3] = molecular target: T1, human macrophage scavenger receptor 1 …; assay: cell-based or functional assay
# GR = molecular target: T2, GR; assay: GR luciferase reporter assay in HEK293/GRLuc cells; type: cell-based
# Protocol: Activity of anti-MSR1 ncADCs were tested using an MSR1 ADC steroid responsive luciferase reporter assay. To generate the assay cell line, HEK293 cells were co-transfected with the pBind-GR (Promega, Cat #E158A) and pGL4.35 [Luc2P/9xGAL4UAS/Hygro] (Promega, Cat #E137A) vectors. The pBind-GR vector expresses a fusion protein consisting of the GR ligand binding and the yeast Gal4DNA-binding domain, which binds to the Gal4 upstream activation sequence (UAS) in the luciferase expression vector, that can induce luciferase expression following GR agonist binding. The cells were selected for at least 2 weeks in G418+hygromycin and the resulting cell line is referred to as HEK293/GRLuc. HEK293/GRLuc cells were then transduced with a human MSR1 lentiviral expression vector and 48 hours later cells were sorted for MSR1 positive cells. The resulting cell line is referred to as HEK293/GRLuc/MSR1.
# Three-fold serial dilutions of ncADCs in assay buffer were added to the cells for 48 hours. The last well in the plate served as blank control containing only the assay media and was plotted as a continuation of the 3-fold serial dilution. Luciferase activity was determined using the One-Glo™ reagent (Promega, Cat #E6130). Relative light units (RLUs) were measured on an Envision luminometer (PerkinElmer) and EC50 values were determined using a four-parameter logistic equation over a 10-point dose response curve (GraphPad Prism). The signal to noise (S/N) was determined by taking the ratio of the highest RLU on the dose response curve to the RLU in the untreated wells.
# To test the activity of GR agonist payloads disclosed herein, a cell-based GR responsive luciferase reporter assay was developed as described above.
# Three-fold serial dilutions of free payloads were prepared in 100% DMSO, transferred to fresh assay media, and added to the cells for 48 hours. […] The last well in the plate served as blank control containing only the assay media and 0.2% DMSO (untreated well) and was plotted as a continuation of the 3-fold serial dilution. Luciferase activity was determined using the One-Glo™ reagent (Promega, Cat #E6130). Relative light units (RLUs) were measured on an Envision luminometer (PerkinElmer) and EC50 values were determined using a four-parameter logistic equation over a 10-point dose response curve (GraphPad Prism). The signal to noise (S/N) was determined by taking the ratio of the highest RLU on the dose response curve to the RLU in the untreated wells.
# [4] = molecular target: T1, human macrophage scavenger receptor 1 …; assay: cell-based or functional assay; remark: listed apart in the source
# [5] = Table 8, ncADCs, highest RLU / RLU of untreated wells
Molecule,"EC50, GR luciferase reporter activity in HEK293/GRLuc/MSR1 cells [3]","S/N, HEK293/GRLuc/MSR1 cells [3]","EC50 (GR; Table 8, ncADCs, 48 hours)",S/N (GR; [5]),"EC50 (GR; Table 11, ADCs)","S/N (GR; Table 11, ADCs)","EC50, GR luciferase reporter activity in HEK293/GRLuc/MSR1 cells [4]","S/N (highest RLU / RLU in untreated wells), HEK293/GRLuc/MSR1 cells [4]",also measured
CCCC1O[C@@H]2C[C@H]3[C@@H]4C[C@H](F)C5=CC(=O)C=C[C@]5(C)[C@@]4(F)[C@@H](O)C[C@]3(C)[C@]2(C(=O)COCNC(=O)CNC(=O)CNC(=O)OCc2ccc(NC(=O)[C@H](CCCNC(N)=O)NC(=O)[C@@H](NC(=O)CCOCCOCCOCCOCCNC(=O)CCC(=O)N3Cc4ccccc4-c4c(nnn4CCOCCOCCOCCOCCC(=O)NCCS(=O)(=O)O)-c4ccccc43)C(C)C)cc2)O1 (some centres unmarked) [Q1L1-PIII-4],,,,,,,,,Solubility [1]: >1000 µg/mL
O=C(c1ccc(F)cc1)C1CCN(CCn2c(=O)[nH]c3ccccc3c2=O)CC1 [ketanserin],,,,,,,,,Percent Remaining (%) ([2]; 0 min): 100.00%; Percent Remaining (%) ([2]; 5 min): 81.45%; Percent Remaining (%) ([2]; 15 min): 67.51%; Percent Remaining (%) ([2]; 30 min): 41.90%; Percent Remaining (%) ([2]; 45 min): 36.47%; CLint scaled ([2]; human): 55.2 mL/min/kg; half-life ([2]; human): 31.5 min
B1,0.84 nM,222,> 100 nM,5.4,> 100 nM,4.5,0.609 nM,128,
B2,,,41.7 nM,13.2,,,0.138 nM,125,
B3,,,51.4 nM,25.5,,,0.117 nM,148,
B4,2.33 nM,226,,,> 100 nM,3.1,,,
B5,0.636 nM,120,,,> 100 nM,16.8,,,
B6,,,52.7 nM,6.0,,,0.184 nM,96.4,
B7,0.899 nM,280,,,> 100 nM,1.4,,,
B8,3.96 nM,150,,,> 100 nM,15.8,,,
